Measurements taken from the supplement of paper PMC9112550, “Optimization of the antimicrobial peptide Bac7 by deep mutational scanning” (BMC Biology, 2022).

System: Escherichia coli TOP10
Assay: shrunken log2 fold change of peptide-encoding DNA abundance (4.5 h post-induction vs induction); higher = less antimicrobial activity (less host growth inhibition)
Conditions: time post-induction: 4.5 h; library: site-saturation at positions 5, 18, 19, 20
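Further: peptides expressed intracellularly from a pBAD plasmid library in pooled LB shake-flask culture, induced with 0.3% L-arabinose, DNA abundance read by NGS, three biological replicates, DESeq2 with apeglm shrinkage.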

Sequence | shrunken log2 fold change
RRIRYRPPRLPRPRPRPSEQPRP | -0.0359
RRIRHRPPRLPRPRPRPQKFPRP | -0.0301
RRIRWRPPRLPRPRPRPVNVPRP | -0.328
RRIRERPPRLPRPRPRPCNQPRP | -0.296
RRIRHRPPRLPRPRPRPSDHPRP | -0.548
RRIRNRPPRLPRPRPRPRSAPRP | 0.0888
RRIRGRPPRLPRPRPRPVGIPRP | 0.414
RRIRGRPPRLPRPRPRPYKAPRP | -0.354
RRIRARPPRLPRPRPRPEEKPRP | 1.22
RRIRQRPPRLPRPRPRPGNQPRP | 0.0157
RRIRNRPPRLPRPRPRPRMHPRP | 0.217
RRIRIRPPRLPRPRPRPHMRPRP | 0.128
RRIRRRPPRLPRPRPRPHAPPRP | 0.353
RRIRFRPPRLPRPRPRPKRIPRP | -0.442
RRIRMRPPRLPRPRPRPEVIPRP | 0.0213
RRIRERPPRLPRPRPRPRNTPRP | -0.346
RRIRMRPPRLPRPRPRPFITPRP | -0.456
RRIRNRPPRLPRPRPRPGNKPRP | -0.408
RRIRPRPPRLPRPRPRPLGTPRP | 0.125
RRIRFRPPRLPRPRPRPNCKPRP | -0.0929
RRIRQRPPRLPRPRPRPVCLPRP | -0.161
RRIRWRPPRLPRPRPRPLNKPRP | -0.397
RRIRRRPPRLPRPRPRPSDFPRP | -0.116
RRIRERPPRLPRPRPRPITVPRP | 0.0995
RRIRFRPPRLPRPRPRPIHTPRP | 0.0523

Sequence | shrunken log2 fold change
RRIRGRPPRLPRPRPRPSHCPRP | 0.204
RRIRERPPRLPRPRPRPFVCPRP | -0.582
RRIRWRPPRLPRPRPRPKNCPRP | -0.122
RRIRFRPPRLPRPRPRPFRTPRP | -0.444
RRIRDRPPRLPRPRPRPMPFPRP | 0.00571
RRIRKRPPRLPRPRPRPWMVPRP | 0.0578
RRIRYRPPRLPRPRPRPPEKPRP | 0.274
RRIRMRPPRLPRPRPRPTCAPRP | 0.827
RRIRYRPPRLPRPRPRPRRDPRP | -0.17
RRIRKRPPRLPRPRPRPCMRPRP | 0.0327
RRIRSRPPRLPRPRPRPQCMPRP | -0.584
RRIRSRPPRLPRPRPRPLNFPRP | -0.305
RRIRRRPPRLPRPRPRPLKFPRP | -0.149
RRIRKRPPRLPRPRPRPFGMPRP | -0.00211
RRIRYRPPRLPRPRPRPECHPRP | 0.0154
RRIRERPPRLPRPRPRPPPRPRP | 0.837
RRIRRRPPRLPRPRPRPEQKPRP | 0.0588
RRIRGRPPRLPRPRPRPMIEPRP | 0.953
RRIRWRPPRLPRPRPRPRGRPRP | 0.704
RRIRYRPPRLPRPRPRPNGAPRP | -0.0032
RRIRRRPPRLPRPRPRPNGGPRP | 0.171
RRIRERPPRLPRPRPRPCQPPRP | 0.0208
RRIRHRPPRLPRPRPRPIFYPRP | -0.204
RRIRRRPPRLPRPRPRPRHPPRP | 0.524
RRIRCRPPRLPRPRPRPICIPRP | -0.191

Sequence | shrunken log2 fold change
RRIRFRPPRLPRPRPRPEHSPRP | -0.00202
RRIRPRPPRLPRPRPRPGFSPRP | -0.0307
RRIRCRPPRLPRPRPRPAGVPRP | 0.259
RRIRKRPPRLPRPRPRPKCQPRP | 0.03
RRIRQRPPRLPRPRPRPHNTPRP | -0.902
RRIRKRPPRLPRPRPRPLDNPRP | 0.0829
RRIRCRPPRLPRPRPRPWIQPRP | -0.000687
RRIRKRPPRLPRPRPRPGIPPRP | -0.0948
RRIRGRPPRLPRPRPRPGNIPRP | -0.104
RRIRERPPRLPRPRPRPHPSPRP | -0.222
RRIRDRPPRLPRPRPRPQPVPRP | 0.28
RRIRLRPPRLPRPRPRPCVSPRP | -0.108
RRIRERPPRLPRPRPRPMYDPRP | -0.266
RRIRLRPPRLPRPRPRPFCVPRP | -0.265
RRIRFRPPRLPRPRPRPFATPRP | -0.0942
RRIRQRPPRLPRPRPRPFCPPRP | -0.236
RRIRYRPPRLPRPRPRPVVMPRP | 0.00213
RRIRQRPPRLPRPRPRPRTFPRP | -0.471
RRIRPRPPRLPRPRPRPEIWPRP | 0.374
RRIRKRPPRLPRPRPRPMAPPRP | 0.0811
RRIRKRPPRLPRPRPRPVQDPRP | 0.295
RRIRRRPPRLPRPRPRPYMAPRP | -0.69
RRIRTRPPRLPRPRPRPTDEPRP | 0.491
RRIRERPPRLPRPRPRPSNRPRP | -0.209
RRIRNRPPRLPRPRPRPATNPRP | -0.0513

Sequence | shrunken log2 fold change
RRIRNRPPRLPRPRPRPCVIPRP | -0.318
RRIRQRPPRLPRPRPRPITMPRP | 0.00801
RRIRWRPPRLPRPRPRPEEMPRP | 0.013
RRIRFRPPRLPRPRPRPRVLPRP | 0.121
RRIRSRPPRLPRPRPRPLCGPRP | 0.0948
RRIRIRPPRLPRPRPRPHSLPRP | 0.0644
RRIRVRPPRLPRPRPRPKWTPRP | 0.0514
RRIRNRPPRLPRPRPRPTCTPRP | -0.0629
RRIRRRPPRLPRPRPRPEFTPRP | 0.0132
RRIRKRPPRLPRPRPRPEEEPRP | 0.0391
RRIRHRPPRLPRPRPRPVFFPRP | -0.0644
RRIRHRPPRLPRPRPRPLMVPRP | -0.474
RRIRKRPPRLPRPRPRPFVHPRP | -0.254
RRIRWRPPRLPRPRPRPVQEPRP | 0.342
RRIRERPPRLPRPRPRPYFMPRP | -0.784
RRIRVRPPRLPRPRPRPLCMPRP | -0.123
RRIRYRPPRLPRPRPRPEGQPRP | 0.0448
RRIRSRPPRLPRPRPRPALSPRP | 0.497
RRIRKRPPRLPRPRPRPGQPPRP | 0.0678
RRIRRRPPRLPRPRPRPINRPRP | 0.0995
RRIRIRPPRLPRPRPRPGFFPRP | -0.00894
RRIRHRPPRLPRPRPRPPCIPRP | 0.00475
RRIRYRPPRLPRPRPRPGYSPRP | -0.874
RRIRSRPPRLPRPRPRPHLQPRP | 0.0575
RRIRIRPPRLPRPRPRPVHHPRP | -0.732

Sequence | shrunken log2 fold change
RRIRIRPPRLPRPRPRPLHTPRP | -0.456
RRIRDRPPRLPRPRPRPDLGPRP | 0.829
RRIRQRPPRLPRPRPRPVDEPRP | -0.249
RRIRYRPPRLPRPRPRPKVSPRP | -0.0576
RRIRGRPPRLPRPRPRPNWLPRP | 0.341
RRIRFRPPRLPRPRPRPSWEPRP | -0.0476
RRIRKRPPRLPRPRPRPYHPPRP | 0.0155
RRIRKRPPRLPRPRPRPDGNPRP | 0.00833
RRIRNRPPRLPRPRPRPLGIPRP | -0.169
RRIRPRPPRLPRPRPRPHLQPRP | 0.152
RRIRARPPRLPRPRPRPMSNPRP | -0.433
RRIRYRPPRLPRPRPRPVPLPRP | -0.17
RRIRNRPPRLPRPRPRPRSPPRP | 2
RRIRVRPPRLPRPRPRPCDSPRP | -0.0445
RRIRDRPPRLPRPRPRPWSTPRP | -0.274
RRIRVRPPRLPRPRPRPIPLPRP | -0.107
RRIRRRPPRLPRPRPRPYHAPRP | -0.0669
RRIRTRPPRLPRPRPRPWRIPRP | 0.025
RRIRGRPPRLPRPRPRPGTEPRP | 0.731
RRIRHRPPRLPRPRPRPKNIPRP | -0.477
RRIRHRPPRLPRPRPRPVFMPRP | -0.311
RRIRYRPPRLPRPRPRPTSRPRP | -0.0257
RRIRSRPPRLPRPRPRPLQTPRP | 0.436
RRIRIRPPRLPRPRPRPLCWPRP | -0.0614
RRIRRRPPRLPRPRPRPHYCPRP | -0.356

Sequence | shrunken log2 fold change
RRIRLRPPRLPRPRPRPQAEPRP | 0.0388
RRIRRRPPRLPRPRPRPHENPRP | -0.019
RRIRERPPRLPRPRPRPGCYPRP | -0.151
RRIRERPPRLPRPRPRPKDAPRP | -0.222
RRIRDRPPRLPRPRPRPEQLPRP | 0.104
RRIRQRPPRLPRPRPRPNAHPRP | -0.18
RRIRERPPRLPRPRPRPIQVPRP | -0.0549
RRIRWRPPRLPRPRPRPTEHPRP | -0.093
RRIRLRPPRLPRPRPRPIYLPRP | -0.654
RRIRARPPRLPRPRPRPFMAPRP | -0.163
RRIRMRPPRLPRPRPRPETEPRP | 3.69
RRIRFRPPRLPRPRPRPDHIPRP | -0.00578
RRIRDRPPRLPRPRPRPEQIPRP | -0.0105
RRIRDRPPRLPRPRPRPSCTPRP | -0.244
RRIRIRPPRLPRPRPRPIICPRP | -0.775
RRIRYRPPRLPRPRPRPIYQPRP | -0.614
RRIRIRPPRLPRPRPRPKDWPRP | 0.299
RRIRERPPRLPRPRPRPRGRPRP | 0.358
RRIRCRPPRLPRPRPRPFMGPRP | -0.585
RRIRLRPPRLPRPRPRPSYQPRP | -0.255
RRIRQRPPRLPRPRPRPHGAPRP | 0.0316
RRIRSRPPRLPRPRPRPARGPRP | 0.574
RRIRCRPPRLPRPRPRPCCGPRP | -0.0934
RRIRNRPPRLPRPRPRPAGIPRP | -0.0145
RRIRARPPRLPRPRPRPWMDPRP | 0.14
